Columns and labels:
[1] = biological target: T1, tau23 (human, UniProt P10636-2 1-352); experiment: EMSA; marked shift from [protein]/[DNA] 1/2; 2.5 uM DNA; 20 mM Tris pH 7.2, 50 mM NaCl, 0.5 mM DTT, 1 mM MgCl2, 0.5 mM EDTA, room temperature 20-30 min; native PAGE in 1xTBE (20% gel at 4 C, or 8% for the 26 bp assay); conditions: protein: recombinant; blunt
[2] = biological target: T1, tau23; experiment: EMSA; shift from [tau]/[bp] 1/100, greatest at 1/3; 20 mM Tris pH 7.2, 50 mM NaCl, 0.5 mM DTT, 1 mM MgCl2, 0.5 mM EDTA, room temperature 20-30 min; native PAGE in 1xTBE (20% gel at 4 C, or 8% for the 26 bp assay); conditions: protein: recombinant; 5' overhang 1 nt at both ends
[3] = biological target: T1, tau23; experiment: AFM; protein/DNA 8/1; particle 8.54 nm vs 7.82 nm tau alone; 20 mM Tris pH 7.2, 50 mM NaCl, 0.5 mM DTT, 1 mM MgCl2, 0.5 mM EDTA, room temperature 20-30 min; native PAGE in 1xTBE (20% gel at 4 C, or 8% for the 26 bp assay); conditions: protein: recombinant; 5' overhang 1 nt at both ends
[4] = biological target: T1, tau23; experiment: EMSA; retardation depends on tau/DNA ratio; 20 mM Tris pH 7.2, 50 mM NaCl, 0.5 mM DTT, 1 mM MgCl2, 0.5 mM EDTA, room temperature 20-30 min; native PAGE in 1xTBE (20% gel at 4 C, or 8% for the 26 bp assay); conditions: protein: recombinant; 5' overhang 1 nt at both ends
[5] = biological target: T1, tau23; experiment: EMSA; 20 mM Tris pH 7.2, 50 mM NaCl, 0.5 mM DTT, 1 mM MgCl2, 0.5 mM EDTA, room temperature 20-30 min; native PAGE in 1xTBE (20% gel at 4 C, or 8% for the 26 bp assay); conditions: protein: recombinant; 5' overhang 1 nt at both ends

T1 sequence (P10636 other isoform, or with tags, fused parts or gaps): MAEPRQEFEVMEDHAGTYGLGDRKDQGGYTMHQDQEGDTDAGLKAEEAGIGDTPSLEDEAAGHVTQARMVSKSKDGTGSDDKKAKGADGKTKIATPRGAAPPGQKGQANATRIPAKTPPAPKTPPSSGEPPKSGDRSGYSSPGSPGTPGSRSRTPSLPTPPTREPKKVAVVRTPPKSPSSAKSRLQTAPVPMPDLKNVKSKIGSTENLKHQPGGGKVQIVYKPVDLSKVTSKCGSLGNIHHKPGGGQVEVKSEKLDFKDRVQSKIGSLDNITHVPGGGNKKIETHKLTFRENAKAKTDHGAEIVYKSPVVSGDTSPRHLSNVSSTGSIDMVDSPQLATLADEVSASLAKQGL

B1: 20 bp DNA (dsDNA)
DNA 1: AACGAGAAGCGCGATCACAT
DNA 2: ATGTGATCGCGCTTCTCGTT
- binding result [1]: binds

B2: 26 bp DNA (dsDNA)
DNA 1: ACTCCGTGCATAAATAATAGGCACTCG
DNA 2: CCGAGTGCCTATTATTTATGCACGGAG
- binding result [2]: binds

B3: 12 bp DNA (dsDNA)
DNA 1: AGTGCATAAATAA
DNA 2: CTTATTTATGCAC
- binding result [3]: no binding

B4: 14 bp DNA (dsDNA)
DNA 1: ACCGTGCATAAATAA
DNA 2: CTTATTTATGCACGG
- binding result [4]: binds

B5: 13 bp DNA (dsDNA)
DNA 1: ACGTGCATAAATAA
DNA 2: CTTATTTATGCACG
- binding result [5]: binds

Source: PMC2432501, “Binding to the Minor Groove of the Double-Strand, Tau Protein Prevents DNA from Damage by Peroxidation”
